Read-outs that look alike come from different tables or passages of the source.
Experiments:
[1] = target: RADA16 peptide, as RADA16 peptide gel; test: incorporation into the peptide gel; unincorporated fraction in PBS washes measured by sandwich ELISA
[2] = cited from earlier work
[3] = Rheological property of the peptide gel (rheometer, storage elastic modulus G′ and loss elastic modulus G″); type: physicochemical; conditions: peptide concentration 1.0% by weight
Method: Among gels having a concentration of 1.0% by weight prepared in Example 1, gels formed by six types of peptide samples as examples: […] peptide (SEQ ID NO: 1), […] peptide (SEQ ID NO: 2), […] peptide (SEQ ID NO: 4), […] peptide (SEQ ID NO: 5), […] peptide (SEQ ID NO: 6), and […] peptide (SEQ ID NO: 8) were subjected to measurement of the rheological property thereof.
The rheological property was measured for 250 μL of a sample with a rheometer (Malvern Panalytical, Kinexus lab+). Specifically, the sample was sandwiched at a gap of 0.2 mm between plates, and subjected to measurement at 20° C.
The storage elastic modulus G′ and the loss elastic modulus G″ of a gel formed by each peptide are obtained by measurement of the rheological property. The storage elastic modulus G′ represents a component stored in an object, of the energy generated by an external force to the object and a strain, and the loss elastic modulus G″ represents a component externally diffused. In a case where a measurement specimen is a gel, the storage elastic modulus G′ generally exceeds the loss elastic modulus G″.

[4] = Fluidity test (gel formation ability) of peptide samples; type: physicochemical; conditions: 1.0% by weight in D-MEM (44 mM NaHCO3, pH 7.4), 37°C, CO2 5%, 48 hours
Method: A peptide powder after freeze-drying at 2.5 mg and 250 μL of D-MEM (containing 1×penicillin, 4.0 mM HEPES, 44 mM NaHCO3; pH 7.4) were added to a 1-mL microtube (glass container having an inner diameter of 5 mm and a height of 5 cm; Maruemu Corporation, Model No. 1), and ultrasound was irradiated in a water bath type ultrasonic apparatus (AS12GTU, 35 kHz, 60 W), to thereby disperse the peptide at a concentration of 1.0% by weight. Thereafter, the microtube was left to stand in a CO2 incubator (37° C., CO2 concentration 5%) for 48 hours in a state standing vertically with the bottom surface thereof facing downward. Penicillin (Life Technologies Corporation, Model No. 15140148) was used as an antibacterial agent at 100 U/mL for the purpose of prevention of mold generation, and a CO2 incubator was used for performing gelling in a condition similar to an in vivo condition.
In order to test whether the peptide sample lost fluidity and gelled, the sample was sealed in a CO2 incubator (37° C., CO2 concentration 5%) and taken out of the incubator, the microtube was rapidly flipped vertically, and a photograph of the peptide sample was taken and recorded. In a case where a portion or all of the peptide sample remained on the bottom surface side of the microtube, the peptide sample was determined to have lost fluidity and gelled. On the other hand, in a case where all of the peptide sample dropped to the cap side of the microtube, the peptide sample was determined not to have gelled.
Additional five types of peptides: […] (SEQ ID NO: 41), […] (SEQ ID NO: 42), […] (SEQ ID NO: 43), […] (SEQ ID NO: 44), and […] (SEQ ID NO: 45) were synthesized according to the same methods as in (1) to (3) of Example 1, and were subjected to gelling and fluidity test.

[5] = Circular dichroism spectrum of peptide gels; type: physicochemical; conditions: 1.0% by weight peptide gel
Text: The “circular dichroism” refers to a phenomenon in which a difference in absorbance occurs between left-handed circularly polarized light and right-handed circularly polarized light when a protein absorbs a circularly polarized light.
Among the peptide gels having a concentration of 1.0% by weight prepared in Example 1, three types of peptides as examples: […] peptide (SEQ ID NO: 4), […] peptide (SEQ ID NO: 2), and […] peptide (SEQ ID NO: 5) were subjected to measurement of circular dichroism spectra at 20° C., 40° C., 60° C., and 80° C. and circular dichroism spectra when re-cooled from 80° C. to 20° C.
The circular dichroism spectrum was measured with a JASCO J-1100 CD Spectrometer by using an assembly cell (GL Sciences, AB20-UV-0.1, cell length 0.1 mm). The measurement range was from 190 to 400 nm, the data-obtaining interval was 0.2 nm, the scanning speed was 200 nm/min, and the specimen concentration was 1.0% by weight. When the circular dichroism spectrum was measured, the temperature was controlled with JASCO temperature regulation unit and a water-cooled Peltier cell holder PTC-514.

[6] = system: mouse fetus-derived 3T3 cells (NIH3T3 cells); test: Evaluation of cell adhesiveness on peptide-coated chamber slide; type: cell-based; conditions: 30 minutes on peptide-coated slide, compared with (RADA)4 peptide control
Method: A peptide sample having a concentration of 1.0% by weight was prepared by the same method as in Example 1. The peptide sample at 50 μL was dropped on a chamber slide (Merck Millipore, Millicell EZ 8-well glass) and dried under reduced pressure using a centrifugal concentrator (TAITEC CORPORATION, VC-96W), to thereby produce a chamber slide coated with the peptide. After 1.8×10^5 of mouse fetus-derived 3T3 cells (NIH3T3 cells) were suspended in 250 μL of a DMEM medium (containing 44 mM NaHCO3, Gibco, 11995-065) containing 10% serum and seeded onto the chamber slide coated with the peptide, incubation was performed in a CO2 incubator (37° C., CO2 concentration 5%) for 30 minutes. The chamber slide was washed with PBS, and cells not adhering thereto were removed. The adhering cells remaining after the washing were immobilized with 4% PFA, and then subjected to DAPI staining. The number of adhering cells was measured according to stereology as a strict quantitative determination technique which eliminates sampling biases. Specifically, nine frames of 100 μm×100 μm were created in a region of 300 μm×300 μm, and the number of cells in each of the frames was counted. The resulting number of cells was converted into the number of cells in a region of 1 mm×1 mm. In the present Example, a (RADA)4 peptide (SEQ ID NO: 19), which is known to form a cell-adhesive peptide gel, was used as a control.

Substance	gelling (loss of fluidity after vertical flipping of the microtube) [4]	also measured
GFP-RADA16 fusion peptide (from UniProt P42212 1-238)		incorporation rate [1]: < 70%
RADARADARADARADA [(RADA)4, reference compound]		G' (Pa) ([2]; pH 3-4, peptide concentration 1.0% by weight): 30^*3 Pa; G' (Pa) ([3]; 2.2% TFA aq.): 265 Pa
RIDADMRARIR	gelled	G' (Pa) ([3]; DMEM (pH 7.4), 20°C): 47,500 Pa
RIDARMDARIR	gelled	circular dichroism signal (β-sheet structure) [5]: negative cotton effect around 220 nm; G' (Pa) ([3]; DMEM (pH 7.4), 20°C): 58,300 Pa; cell adhesiveness (number of adhering cells) [6]: comparable with or more than a (RADA)4 peptide
RIDARMRADIR	gelled	circular dichroism signal (β-sheet structure) [5]: negative cotton effect around 220 nm; G' (Pa) ([3]; DMEM (pH 7.4), 20°C): 21,300 Pa; cell adhesiveness (number of adhering cells) [6]: comparable with or more than a (RADA)4 peptide
RIDARMRADMR	gelled	
RIRADIRADMR	gelled	
RIRADIRGDIR	gelled	
RIRADMDARIR	gelled	
RIRADMRADIR	gelled	circular dichroism signal (β-sheet structure) [5]: negative cotton effect around 220 nm; G' (Pa) ([3]; DMEM (pH 7.4), 20°C): 4,830 Pa; cell adhesiveness (number of adhering cells) [6]: comparable with or more than a (RADA)4 peptide
RIRADMRGDIR	gelled	
RIRARMDADIR	gelled	G' (Pa) ([3]; DMEM (pH 7.4), 20°C): 6,500 Pa
RIRGDIRADIR	gelled	
RIRGDIRGDIR	gelled	
RIRGDMRADIR	gelled	
RIRGDMRGDIR	gelled	G' (Pa) ([3]; DMEM (pH 7.4), 20°C): 47,800 Pa
RLDLRLALRLDLR [SPG178, known peptide gelling agent]		G' (Pa) ([2]; pH 7, peptide concentration 1.0% by weight): 70^*3 Pa; G' (Pa) ([2]; pH 7, peptide concentration 1.5% by weight): 300^*3 Pa
RMDADMRARIR	gelled	
RMDARIDARIR	gelled	
RVDVDVRVRVR	did not gel	
RVDVRVDVRVR	did not gel	
RVDVRVRVDVR	did not gel	
RVRVDVDVRVR	did not gel	
RVRVDVRVDVR	did not gel	
RVRVRVDVDVR	did not gel	
